Patent publication US20190161551A1 (Regeneron, published 2019)

B1: H4H9816P2 (antibody, human IgG4 S228P, kappa, V domains shown)
VH: EVQLVESGGGLVQPGGSLTLSCAASGFNFRDYEMIWVRQTPGKGLEWISYISNSGYTIYYADSVKGRFTISRDNARNSIYLQVNSLRAEDTAVYYCSRRTTMIRGIRAYYYYGLDVWGQGTTVTVSS
VL: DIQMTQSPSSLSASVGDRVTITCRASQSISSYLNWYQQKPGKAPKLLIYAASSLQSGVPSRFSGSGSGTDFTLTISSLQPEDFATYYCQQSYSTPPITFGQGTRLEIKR
notes: Fully human anti-human TrkB agonist antibody, human IgG4 Fc; also called H4H9816P-L1
B2: H4H9814P (antibody, human IgG4 S228P, kappa, V domains shown)
VH: EVQLVESGGGLVQPGGSLKLSCTASGFTFSGSVIHWVRQASGKGLEWIGRIRNKANSYATAYGASVTGRFTISRDDSKNTAYLQMNSLKTEDTAVYYCTFPGVVGRGGFDYWGQGTLVTVSS
VL: DIVMTQSPDSLAVSLGEGATINCMSSQSVLFSSNNKNYLAWYQQKPGQPPKLLFYWASTRESGVPDRFGGSGSGTDFSLTINSLQTEDVAVYYCLQYYSIPWTFGQGTKVEIKR
notes: Fully human anti-human TrkB agonist antibody, human IgG4 Fc; also called H4H9814P-L1
B3: H4H9780P (antibody, human IgG4 S228P, kappa, V domains shown)
VH: QVQLVESGGGVVQPGRSLRLSCAASGFSFSSFGMHWVRQAPGKGLEWVSVISYDGINTYYTDSVKGRFTISRDNSKNTLYLQMNGLRAEDTALYYCVQGSIGTVFEYWGQGTLVTVSS
VL: DIQMTQSPSSLSASVGDRVTITCRASQGISNYLAWYQQKPGKVPKLLIYAASTLQSGVPSRFGGSGSGTDFTLTISSLQPEDVATYYCQKYTSAPFTFGPGTKVDIKR
notes: Fully human anti-human TrkB agonist antibody, human IgG4 Fc; also called H4H9780P-L1

How the values were obtained:
[1] = target: T1, human TrkB extracellular domain expressed with a C-terminal mouse IgG2a Fc tag (human); assay: BLI Octet, captured hTrkB.mFc, 300 nM mAb (hNT-4 run)
T1 construct: also called hTrkB-mFc; hTrkB.mFc
Protocol: Blocking of anti-human TrkB or anti-mouse TrkB antibodies from binding to TrkB by BDNF or NT-4 was evaluated using a real-time bio-layer interferometry (BLI) based Octet HTX instrument. The entire study was performed in 10 mM HEPES pH 7.4, 300 mM NaCl, 3 mM EDTA, 1 mg/mL BSA, 0.02% NaN3 and 0.05% v/v Surfactant Tween-20 (HBS-EBT running buffer) at 25° C. All the samples were dispensed in a 384 tilted well plate and the plate was placed on the orbital shaker with the shake speed of 1000 rpm. hTrkB.mFc was captured on anti-mFc (AMC) Octet sensors while hTrkB.hFc or mTrkB.hFc were captured on anti-hFc (AHC) Octet sensors by dipping in wells containing 10 μg/mL of TrkB reagents for 2 minutes. hTrkB.mFc or hTrkB.hFc captured Octet biosensors were saturated by dipping in wells containing 20 nM of BDNF, hNT-4, or mNT-4 for 2 minutes followed by dipping Octet biosensors in wells containing 300 nM of different TrkB mAbs for 4 minutes. Binding of TrkB mAbs to the complex of TrkB and BDNF, hNT-4, or mNT-4 was determined using Scrubber 2.0c analysis software.

[2] = target: T2, human TrkB extracellular domain expressed with a C-terminal myc-myc-hexahistidine tag (human, UniProt Q16620 32-430); assay: SPR, mAb captured (anti-hFc), 37C
T2 construct: also called hTrkB.mmH; hTRKB.mmH
Protocol: (§1) Equilibrium dissociation constants (KD values) for TrkB binding to purified anti-TrkB monoclonal antibodies were determined using a real-time surface plasmon resonance biosensor using a Biacore 4000 instrument. All binding studies were performed in 10 mM Hepes pH 7.4, 150 mM NaCl, 3 mM EDTA, and 0.05% v/v Surfactant Tween-20 (HBS-ET running buffer) at 25° C. and 37° C. […] Binding studies were performed on following TrkB reagents; human TrkB extracellular domain expressed with a C-terminal myc-myc-hexahistidine tag (hTRKB.mmH; SEQ ID NO: 76; Accession number NP_001018074.1), mouse TrkB extracellular domain expressed with a C-terminal myc-myc-hexahistidine tag (mTRKB.mmH; SEQ ID NO: 79; Accession number NP_001020245), rat TrkB extracellular domain expressed with a C-terminal myc-myc-hexahistidine tag (rTRKB.mmH; SEQ ID NO: 84; Accession number NP_036863.1), and human TrkB extracellular domain expressed with a C-terminal mouse IgG2a Fc tag (hTrkB-mFc; SEQ ID NO: 77; Accession number NP_001018074.1). […] Kinetic association (kₐ) and dissociation (kd) rate constants were determined by fitting the real-time binding sensorgrams to a 1:1 binding model with mass transport limitation using Scrubber 2.0c curve-fitting software. Binding dissociation equilibrium constants (KD) and dissociative half-lives (t½) were calculated from the kinetic rate constants as: […]

[3] = target: T1, human TrkB extracellular domain …; assay: SPR, mAb captured (anti-hFc), 37C
Protocol: as §1

[4] = target: T3, rat TrkB extracellular domain expressed with a C-terminal myc-myc-hexahistidine tag (rat, UniProt Q63604 32-429); assay: SPR, mAb captured (anti-hFc), 37C
T3 construct: also called rTrkB.mmH; rTRKB.mmH
Protocol: as §1

[5] = target: T4, mouse TrkB extracellular domain expressed with a C-terminal myc-myc-hexahistidine tag (mouse, UniProt P15209 32-429); assay: SPR, mAb captured (anti-hFc), 37C
T4 construct: also called mTrkB.mmH; mTRKB.mmH
Protocol: as §1

[6] = target: T2, human TrkB extracellular domain …; assay: SPR, mAb captured (anti-hFc), 25C
Protocol: as §1

[7] = target: T1, human TrkB extracellular domain …; assay: SPR, mAb captured (anti-hFc), 25C
Protocol: as §1

[8] = target: T3, rat TrkB extracellular domain expressed …; assay: SPR, mAb captured (anti-hFc), 25C
Protocol: as §1

[9] = target: T4, mouse TrkB extracellular domain …; assay: SPR, mAb captured (anti-hFc), 25C
Protocol: as §1

T4 sequence (P15209 other isoform, or with tags, fused parts or gaps): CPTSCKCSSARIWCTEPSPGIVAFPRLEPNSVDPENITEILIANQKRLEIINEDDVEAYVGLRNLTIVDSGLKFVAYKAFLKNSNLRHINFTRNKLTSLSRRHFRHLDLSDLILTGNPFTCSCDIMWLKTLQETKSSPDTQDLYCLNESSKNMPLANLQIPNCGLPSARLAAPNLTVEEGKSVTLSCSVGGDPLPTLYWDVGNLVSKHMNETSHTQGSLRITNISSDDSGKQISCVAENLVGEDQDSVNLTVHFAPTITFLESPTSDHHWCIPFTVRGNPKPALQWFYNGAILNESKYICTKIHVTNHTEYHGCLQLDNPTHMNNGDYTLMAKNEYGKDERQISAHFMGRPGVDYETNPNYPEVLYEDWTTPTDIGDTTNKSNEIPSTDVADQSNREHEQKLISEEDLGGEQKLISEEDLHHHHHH
T2 sequence (Q16620 other isoform, or with tags, fused parts or gaps): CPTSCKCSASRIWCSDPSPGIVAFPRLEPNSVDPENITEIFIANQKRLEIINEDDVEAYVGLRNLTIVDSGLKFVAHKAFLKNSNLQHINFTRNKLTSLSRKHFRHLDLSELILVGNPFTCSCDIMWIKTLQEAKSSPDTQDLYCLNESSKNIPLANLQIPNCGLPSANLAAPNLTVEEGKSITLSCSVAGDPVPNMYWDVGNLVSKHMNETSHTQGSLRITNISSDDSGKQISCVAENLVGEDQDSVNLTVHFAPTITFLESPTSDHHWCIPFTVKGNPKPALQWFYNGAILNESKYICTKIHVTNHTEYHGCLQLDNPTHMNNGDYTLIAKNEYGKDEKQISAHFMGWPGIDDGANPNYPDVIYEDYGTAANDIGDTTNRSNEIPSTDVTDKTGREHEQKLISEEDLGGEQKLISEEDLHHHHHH
T1 sequence (chain, as listed by the source limits assumed): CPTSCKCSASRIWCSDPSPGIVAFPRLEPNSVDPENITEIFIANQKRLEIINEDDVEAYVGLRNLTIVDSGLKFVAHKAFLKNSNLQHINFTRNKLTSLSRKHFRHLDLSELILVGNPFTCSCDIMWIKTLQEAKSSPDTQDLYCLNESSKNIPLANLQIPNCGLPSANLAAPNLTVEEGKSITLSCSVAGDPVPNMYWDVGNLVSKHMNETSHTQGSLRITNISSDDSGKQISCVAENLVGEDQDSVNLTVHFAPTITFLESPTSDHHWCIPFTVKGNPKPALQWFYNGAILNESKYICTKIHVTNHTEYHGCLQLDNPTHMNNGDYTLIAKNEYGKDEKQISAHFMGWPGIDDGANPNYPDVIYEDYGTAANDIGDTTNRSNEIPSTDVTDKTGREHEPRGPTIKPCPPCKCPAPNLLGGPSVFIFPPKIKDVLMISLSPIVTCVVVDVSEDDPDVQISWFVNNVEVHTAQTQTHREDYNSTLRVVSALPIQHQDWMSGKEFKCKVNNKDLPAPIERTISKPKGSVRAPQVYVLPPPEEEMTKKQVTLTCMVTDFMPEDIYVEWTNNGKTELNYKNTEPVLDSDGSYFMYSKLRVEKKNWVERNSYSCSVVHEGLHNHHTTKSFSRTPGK
T3 sequence (Q63604 other isoform, or with tags, fused parts or gaps): as the sequence (P15209 other isoform, or with tags, fused parts or gaps) above, with T3M, S9T, A10T, V32I, R63K, S84G, M153T, L185I, S394T counted along it

Binder	mAb Binding (nm) [1] [nm]	100 nM hTrkB.mmH Bound (RU) [2] [RU]	Kd [2] [nM]	koff [2] [s⁻¹]	kon [2] [M⁻¹ s⁻¹]	t½ [2] [min]	100 nM hTrkB-mFc Bound (RU) [3] [RU]	Kd [3] [nM]	koff [3] [s⁻¹]	kon [3] [M⁻¹ s⁻¹]	t½ [3] [min]	100 nM rTrkB.mmH Bound (RU) [4] [RU]	100 nM mTrkBmmH Bound (RU) [5] [RU]	100 nM hTrkB.mmH Bound (RU) [6] [RU]	Kd [6] [nM]	koff [6] [s⁻¹]	kon [6] [M⁻¹ s⁻¹]	t½ [6] [min]	100 nM hTrkB-mFc Bound (RU) [7] [RU]	Kd [7] [nM]	further results
B1	0.18	12	70.8	0.00374	52800	3.1	14	3.46	0.00024	69500	48	0	0	30	13.8	0.000845	61400	14	25	1.22	binding result [4]: no binding (tested: 100 nM); koff [7]: 7.98e-05 s⁻¹; kon [7]: 65200 M⁻¹ s⁻¹; t½ [7]: 145 min; 100 nM rTrkB.mmH Bound (RU) [8]: 0 RU; 100 nM mTrkB.mmH Bound (RU) [9]: 0 RU; binding result [9]: no binding (tested: 100 nM)
B2	0.18	32	2.28	0.00468	2.05e+06	2.5	42	0.0733	0.000208	2.83e+06	56	-1	0	63	0.545	0.000686	1.26e+06	17	69	0.0311	koff [7]: 5.95e-05 s⁻¹; kon [7]: 1.91e+06 M⁻¹ s⁻¹; t½ [7]: 194 min; 100 nM rTrkB.mmH Bound (RU) [8]: -1 RU; 100 nM mTrkB.mmH Bound (RU) [9]: -2 RU
B3	0.18	14	63.8	0.00364	57100	3.2	14	3.33	0.000222	66500	52	0	1	20	21.7	0.000867	40000	13	14	4.48	koff [7]: 0.000168 s⁻¹; kon [7]: 37400 M⁻¹ s⁻¹; t½ [7]: 69 min; 100 nM rTrkB.mmH Bound (RU) [8]: -1 RU; 100 nM mTrkB.mmH Bound (RU) [9]: -1 RU
